According to US20240173442A1, “COMBINATION THERAPY” (Hoffmann-La Roche Inc., priority 2021, published 2024):

Legend:
SC BxPC3 tumors [1] = assay: Protocol 185: biodistribution of 212Pb-DOTAM after CEA-split-DOTAM-VH/VL targeting T84.66 or CH1A1A; type: in vivo, SCID mice; conditions: 6 hours after injection
Procedure: (§1) The in vivo distribution of ^212Pb-DOTAM was assessed 6 hours after the radioactive injection.
(§2) Solid xenografts were established in each SCID mouse on study day 0 by SC injection of 5×10^6 cells (passage 27) in RPMI/Matrigel into the right flank. Twenty-two days after tumor cell injection, mice were sorted into experimental groups with an average tumor volume of 224 mm^3. The ^212Pb-DOTAM was injected on day 28 after inoculation, at which point the average tumor volume had reached 385 mm^3.
All mice were sacrificed and necropsied 6 hours after injection of ^212Pb-DOTAM, and the following organs and tissues harvested for measurement of radioactive content: blood, skin, spleen, pancreas, kidneys, liver, muscle, tail, and tumor. Collected tumors were split in two pieces: one was measured for radioactive content, and the other put in a cryomold containing Tissue-Tek® optimum cutting temperature (OCT) embedding medium, and put on dry ice for rapid freezing. Frozen samples in OCT were maintained at −80° C. before cryosectioning, immunofluorescence staining, and analysis using a Zeiss Axio Scope.A1 modular microscope.

SC BxPC3 tumors [2] = assay: Protocol 189: biodistribution of 212Pb-DOTAM after bi-paratopic (T84.66 and CH1A1A) CEA-split-DOTAM-VH/VL pairs; type: in vivo, SCID mice; conditions: 6 hours after injection
Procedure: This bi-paratopic combination precludes formation of the full Pb-DOTAM binder on soluble CEA that only expresses one of the two epitopes (e.g. T84.66), thereby mitigating potential adverse effects thereof, such as increased circulating radioactivity and associated radiation-induced toxicity, and decreased efficacy from competition with off-tumor targets.
as §1
as §2, with “31)” for “27)”, “Fourteen” for “Twenty-two”, “343” for “224”, “22” for “28”, “inoculation;” for “inoculation, at which point”, “557 mm^3 on day 21.” for “385 mm^3.”
All mice were sacrificed and necropsied 6 hours after injection of ^212Pb-DOTAM, and the following organs and tissues harvested for measurement of radioactive content: blood, skin, spleen, pancreas, kidneys, liver, muscle, tail, and tumor.

B1: CH1A1A: CEA-split-DOTAM-VH/VL pair targeting CH1A1A: P1AF0171 (VH-AST) plus P1AD8592 (VL) (antibody, V domains shown)
VH: QVQLVQSGAEVKKPGASVKVSCKASGYTFTEFGMNWVRQAPGQGLEWMGWINTKTGEATYVEEFKGRVTFTTDTSTSTAYMELRSLRSDDTAVYYCARWDFAYYVEAMDYWGQGTTVTVSS
VL: DIQMTQSPSSLSASVGDRVTITCKASAAVGTYVAWYQQKPGKAPKLLIYSASYRKRGVPSRFSGSGSGTDFTLTISSLQPEDFATYYCHQYYTYPLFTFGQGTKLEIK
modifications: split DOTAM-binding domains and constant regions lack entries
tumor accumulation of ^212Pb (SC BxPC3 tumors [1]): 40 % ID/g
tumor accumulation of ^212Pb (SC BxPC3 tumors [2]): 37 % ID/g
